Data as given in publication PMC7954794, “Protein context shapes the specificity of SH3 domain-mediated interactions in vivo” (Nature Communications, 2021).

Legend:
Assay type in all cases: cell-based, Saccharomyces cerevisiae
ABP1 = experiment: DHFR-PCA on solid medium, bait ABP1 (Fig. 1B); settings: bait ABP1, label = prey; 2-4 replicates
Text: (§1) Supplement 41467_2021_21873_MOESM8_ESM.xlsx, sheet "Fig1B" | column: medsize; medrep; Ratio; Score

BBC1 = experiment: DHFR-PCA on solid medium, bait BBC1 (Fig. 1B); settings: bait BBC1, label = prey; for medrep (log2 median colony size normalized to plate background, PCA score): 2-4 replicates; for Ratio (SH3-deleted/WT medrep): only significant differences showed, PPIs completely lost have a ratio of 0.1 and the gained PPIs 2.5
Text: as §1

[1] = tested on: 575 putative partners (preys) of 22 WT SH3-containing proteins; experiment: DHFR-PCA on solid medium, WT and SH3-deleted baits (Fig. 1B); parameters: key to Score: 0: SH3-independent; 1: SH3-dependent PPIs; 2: SH3-inhibited PPIs; settings: for medrep (log2 median colony size normalized to plate background, PCA score): label = prey; for Ratio (SH3-deleted/WT medrep): only significant differences shown, PPIs completely lost have a ratio of 0.1, gained PPIs 2.5
How it was run: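 Interactions scored by DHFR protein-fragment complementation on solid medium using robotic pinning; preys (DHFR F[3] fusions) arrayed in duplicate with control borders. Baits carried C-terminal DHFR F[1,2]-FLAG tags, tested as wild type and as SH3-deleted versions carrying a flexible Gly/Ser stuffer.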

Abp1 PPIs = experiment: DHFR-PCA of Abp1 SH3-swapped baits (Fig. 2B-D, S2C, S2F); settings: number of interactions of Abp1 carrying the named SH3; sheet FigS2A-B
How it was run: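 Interactions were scored by DHFR protein-fragment complementation. DHFR F[1,2]-tagged Abp1 strains, whose SH3 was swapped for yeast or human ortholog domains, were crossed on YPD at 30 °C for 48 h with a 1536-format array of 575 prey-DHFR F[3] strains and 40 negatives, giving four replicates per pair. PCA selection lasted 4 days after double diploid selection.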

Abp1 (1xFLAG) = experiment: Western blot expression level of Abp1 SH3-swapped baits (Fig. S2A-B); parameters: Flag (2 bands): unit not given here; settings: sheet FigS2A-B
How it was run: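 Yeast expressing DHFR F[1,2]-FLAG-tagged baits grown in synthetic complete medium at 30 °C to OD600 ~1.0, lysed with glass beads in Tris pH 7.4/150 mM NaCl/1% Triton X-100. Baits immunoprecipitated on FLAG-M2 beads 120 min at 4 °C, resolved on 10% SDS-PAGE, probed with anti-FLAG HRP (ECL), signals quantified by imager.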

[2] = bait SLA1-2, DHFR-PCA, Replicates 4 (2 for YCR009C, YDR388W)
[3] = bait SLA1-3, DHFR-PCA, Replicates 4 (2 for YCR009C, YDR388W, YIL033C)

Row | Molecule | medrep (log2 median colony size normalized to plate background, PCA score) (ABP1) | medrep (log2 median colony size normalized to plate background, PCA score) (BBC1) | Ratio (SH3-deleted/WT medrep) (BBC1) | medrep (log2 median colony size normalized to plate background, PCA score) [1, 2] | Score ([1]; bait SLA1-2, label = prey) | Ratio (SH3-deleted/WT medrep) ([1]; bait SLA1-2, label = prey) | medrep (log2 median colony size normalized to plate background, PCA score) [1, 3] | Score ([1]; bait SLA1-3, label = prey) | Interactions in Abp1 (Abp1 PPIs) | Ratio Swap/WT Flag (Abp1 (1xFLAG); Flag signal relative to Abp1 WT (Abp1-1 to Abp1-4 = 1)) | Flag (2 bands) (Abp1 (1xFLAG); Western blot Flag signal (2 bands), Abp1 WT, SH3-deleted or SH3-swapped)
1 | YFL010C (protein, UniProt P43582 1-211, looked up) WW domain-containing protein …: MAQSKSNPPQVPSGWKAVFDDEYQTWYYVDLSTNSSQWEPPRGTTWPRPKGPPPGVNNEKSSRQQADQAPPPYSSQSTPQVQAGAQAQQPRYYQPQQPQYPQYPQQQRYYPQQAPMPAAAPQQAYYGTAPSTSKGSGHGGAMMGGLLGVGAGLLGGAMLEHAFDDHNYDGPDTVVVENNYYGDDAGGSDGGFDDAGGFDGGFDDGFDGSDF | 2.163 | 1.4009 | 0.1 |  |  |  |  |  |  |  | 
2 | YLR196W (protein, UniProt P21304 1-576, looked up) Periodic tryptophan protein 1: MISATNWVPRGFSSEFPEKYVLDDEEVERINQLAQLNLDDAKATLEEAEGESGVEDDAATGSSNKLKDQLDIDDDLKEYNLEEYDDEEIADNEGGKDVSMFPGLSNDSDVKFHEGEKGEDPYISLPNQEDSQEEKQELQVYPSDNLVLAARTEDDVSYLDIYVYDDGAGFHSSDIPVEEGDEADPDVARGLVRDPALYVHHDLMLPAFPLCVEWLDYKVGSNSEEAANYAAIGTFDPQIEIWNLDCVDKAFPDMILGEPLDNSMVSLKSKKKKKKSKTGHITTHHTDAVLSMAHNKYFRSVLASTSADHTVKLWDLNSGNAARSLASIHSNKNVSSSEWHMLNGSILLTGGYDSRVALTDVRISDESQMSKYWSAMAGEEIETVTFASENIILCGTDSGNVYSFDIRNNENRKPVWTLKAHDAGISTLCSNKFIPGMMSTGAMGEKTVKLWKFPLDDATNTKGPSMVLSRDFDVGNVLTSSFAPDIEVAGTMVIGGVNKVLKLWDVFTNRSVRKSFKSELENVQARAKEEAQKIGKSSRIARKYTSNDNPDTVITIDDQGEDEEEREGGDEHDDMA | 3.732 | 2.428 | 0.1 |  |  |  |  |  |  |  | 
3 | YIR003W (protein, UniProt P40563 1-679, looked up) Altered inheritance of …: MPSEVTPKVPERPSRRKTSELFPLSGSESGDIKANSEPPTPAGTPNVPTRRPILKAKTMTSFESGMDQESLPKVPLQRPVRRSTTEELNNVMNNTSKELEEIESLISKHNIHNVSRKKSPTSVEEGKVAAIHQNGQRSASDNKTSTNPSPLEKNEHEGAEGNESAISPSNLVNKSNNEVTEHSDSEDLTEKQKVHAALDNEAGDRSHFEEKLIPGDMKVQVDVSKDVEEGSLNALPPSGITESDDKAEKFTKHPESSLEELQKHQEQQEEKIFQNPTDEESTTSLNEKQEGKDNMEVNSQPQGPSDTETVIAATSSNVPSQIASEEENDVPVIPRSRPKKDFEAHVQKEELPNTQEKRVSEECDSTLISTEEESKIPKIPSERPKRRAPPPVPKKPSSRIAAFQEMLQKQQQQDLHNNGNSSATTASADIAKKHTDSSITSDTTKADFTSKLNGLFALPGMVNPGQLPPSLEKKLSSPDTESKLGPQDQSQAKTGPLGGTRRGRGPRGRKLPSKVASVEKIEEDDNTNKIEIFNNWNVSSSFSKEKVLIDTTPGEQAERALDEKSKSIPEEQREQSPNKMEAALCPFELDEKEKLPANAESDPLSQLPQTNAVGNRKAISEESLSPSEAIANRDQNDTTEIQEQQMEDQMEVDMERELSGGYEDVDSALHSEEASFHSL | 4.768 | 5.119 |  | 2.274 | 1 | 0.1 | 2.274 | 0 |  |  | 
4 | YOR042W (protein, UniProt Q08412 1-411, looked up) Ubiquitin-binding protein CUE5: MEEKEGIKDSSLLEKSNVPESINEDISKTTDVDLNSDGKKDNDTSAKDGTPKVEEKVNKSSGIDEDEVVTPAEDAKEEEEEHPPLPARRKSEEEPSKENPILQELKDAFPNLEEKYIKAVIIASQGVLSPAFNALLFLSDPESGKDIELPTQPVRKNPEAPARRRQTQLEQDELLARQLDEQFNSSHSRRRNRDRATRSMHEQRRRRHNPNEREQHHEDSEEEDSWSQFVEKDLPELTDRAGRSLQDTANKVSNWISDAYRRNFASGNEQNDNQHGHQDQQEWEPEIVDLSQGGKNSRPQQPERRRFNSFGVQVGDDSLESHGITLHNEDGFEDDEDVPPQLPTRTKSGESTGKVVAETTYIDTPDTETKKKWQPLPPEPLDTTPTKVNAVSRNKKNPDEDEFLINSDDEM | 4.057 | 1.718 | 0.1 | 2.528 | 1 | 0.1 | 2.528 | 0 |  |  | 
5 | Boi1 (protein, UniProt P38041 1-980, looked up) BEM1-interacting protein 1: MSLEGNTLGKGAKSFPLYIAVNQYSKRMEDELNMKPGDKIKVITDDGEYNDGWYYGRNLRTKEEGLYPAVFTKRIAIEKPENLHKSPTQESGNSGVKYGNLNDSASNIGKVSSHQQENRYTSLKSTMSDIDKALEELRSGSVEQEVSKSPTRVPEVSTPQLQDEQTLIQEKTRNEENTTHDSLFSSTADLNLSSESLKNISKSNISTKSLEPSSESVRQLDLKMAKSWSPEEVTDYFSLVGFDQSTCNKFKEHQVSGKILLELELEHLKELEINSFGIRFQIFKEIRNIKSAIDSSSNKLDADYSTFAFENQAAQLMPAATVNRDEIQQQISSKCNKLSSESSDRKSSSVTTELQRPSSVVVNPNFKLHDPAEQILDMTEVPNLFADKDIFESPGRAPKPPSYPSPVQPPQSPSFNNRYTNNNARFPPQTTYPPKNKNPTVYSNGLIPNSSTSSDNSTGKFKFPAMNGHDSNSRKTTLTSATIPSINTVNTDESLPAISNISSNATSHHPNRNSVVYNNHKRTESGSSFVDLFNRISMLSPVKSSFDEEETKQPSKASRAVFDSARRKSSYGHSRDASLSEMKKHRRNSSILSFFSSKSQSNPTSPTKQTFTIDPAKMTSHSRSQSNSYSHARSQSYSHSRKHSLVTSPLKTSLSPINSKSNIALAHSETPTSSNNKEAVSQPSEGKHKHKHKHKSKHKHKNSSSKDGSSEEKSKKKLFSSTKESFVGSKEFKRSPSELTQKSTKSILPRSNAKKQQTSAFTEGIRSITAKESMQTADCSGWMSKKGTGAMGTWKQRFFTLHGTRLSYFTNTNDEKERGLIDITAHRVLPASDDDRLISLYAASLGKGKYCFKLVPPQPGSKKGLTFTEPRVHYFAVENKSEMKAWLSAIIKATIDIDTSVPVISSYATPTIPLSKAQTLLEEARLQTQLRDAEEEEGRDQFGWDDTQNKRNSNYPIEQDQFETSDYLESSAFEYPGGRL |  |  |  |  |  |  |  |  | 70 | 0.615 | 59532
